Patent US20220235118A1 (IMMUNOME, published 2022)

B1: PR193_00018 (antibody, V domains shown)
VH: EVQLVESGGGLVQPGGSLRLSCSASGFTFSSFWMSWVRQAPGKGLEWVATIREDGSEKYYVDSVKGRFSISRDNAKNSLYLQMNSLRAEDTAVYYCARSKWLRGSFDYWGQGTLVTVSS
VL: NFMLTQPHSVSESPGKTVTISCTRRSGSIASNYVQWYQQRPGSAPTTVIYEDNQRPSGVPDRFSGSIDSSSNSASLTISGLQTEDEADYYCQSYDSSNPPGASWVFGGGTKLTVL
notes: also called IMM20184; IMM200184
B2: PR200_00622 (antibody, V domains shown)
VH: QVQLVESGGGVVQPGRSLRLSCTASGFTFSTYGMHWVRQAPGKGLEWVAVISYDGSSKHYAESVKGRFTISRDNSNNTLYLQMNRLRAEDTAVYYCARDGQPPGWGNYFDYWGQGTLVTVAS
VL: SYVLTQPPSVSVAPGKTARITCGGNGIGSKSVYWYQQKPGQAPEVVVYDDSDRPSGIPERFSGSNSGNTATLTISRVEAGDEADYYCQVWDSSSDPWVFGGGTKLTVL
notes: also called IMM20253; PR200_00253
B3: PR194_00232 (antibody, V domains shown)
VH: EVQLVESGGGLVQPGGSLRLSCSASGFTVSSNYMSWVRQAPRKGLEWVSVIYAGGSTFYADSVKGRFTISRDNSKNTLLLQMNSLRAEDTAVYYCARDRGGYLDYWGQGTLVTVSS
VL: DIQMTQSPSSLSASVGDRVTITCRASQGISNYLAWYQQKPGKVPKLLIYAASTLQSGVPSRFSGSGSGTDFTLTISSLQPEDVATYYCQKYNSAPGLTFGGGTKVEIK
notes: also called IMM20190; PR194_00190

Columns and labels:
[1] = biological target: T1, SARS-CoV-2 Spike S1 domain K417N, E484K, N501Y, D614G (SARS-CoV-2, UniProt P0DTC2 16-685); assay: HTRF, soluble S1 construct
T1 construct: domain: S1; also called S. African (K417N, E484K, N501Y, D614G); B.1.351

[2] = biological target: T2, SARS-CoV-2 Spike S1 domain ΔHV69/70, Y453F, D614G (SARS-CoV-2, UniProt P0DTC2 16-685); assay: HTRF, soluble S1 construct
T2 construct: domain: S1; also called Denmark (ΔHV69/70, Y453F, D614G); DHV69/70, Y453F, D614G

[3] = biological target: T3, SARS-CoV-2 Spike S1 domain D614G (SARS-CoV-2, UniProt P0DTC2 16-685); assay: HTRF, soluble S1 construct
T3 construct: domain: S1

[4] = biological target: T4, SARS-CoV-2 Spike S1 domain ΔHV69/70, ΔY144, N501Y, A570D, D614G, P681H (SARS-CoV-2, UniProt P0DTC2 16-685); assay: HTRF, soluble S1 construct
T4 construct: domain: S1; also called U.K. (B.1.1.7); DHV69/70, DY144, N501Y, A570D, D614G, P681H

[5] = biological target: T5, SARS-CoV-2 Spike S1 domain A222S, D614G (SARS-CoV-2, UniProt P0DTC2 16-685); assay: HTRF, soluble S1 construct
T5 construct: domain: S1; also called Spanish (A222S, D614G)

[6] = biological target: T6, SARS-CoV-2 Spike RBD K417N, E484K, N501Y (SARS-CoV-2, UniProt P0DTC2 319-541); assay: HTRF, soluble RBD construct
T6 construct: domain: RBD; also called S. African partial (K417N, E484K, N501Y)

[7] = biological target: T7, SARS-CoV-2 Spike RBD K417T, E484K, N501Y (SARS-CoV-2, UniProt P0DTC2 319-541); assay: HTRF, soluble RBD construct
T7 construct: domain: RBD; also called Brazilian (K417T, E484K, N501Y)

[8] = biological target: T8, SARS-CoV-2 Spike-RBD Omicron variant (SARS-CoV-2, UniProt P0DTC2 319-541); assay: HTRF binding assay on soluble Spike-RBD B.1.1.529; % binding relative to Ref
T8 construct: domain: RBD; also called soluble RBD domain of the Spike protein containing mutations found in the Omicron variant

[9] = biological target: T7, SARS-CoV-2 Spike RBD K417T, E484K, N501Y; assay: HTRF, EC50 of binding, soluble RBD construct

Row | Binder | fold over background [1] [fold over background] | fold over background [2] [fold over background] | fold over background [3] [fold over background] | fold over background [4] [fold over background] | fold over background [5] [fold over background] | EC50 [6] [nM] | EC50 [7] [nM] | binding result [8] | binding result [9]
1 | B1 | 4.64 | 5.61 | 4.93 | 4.15 | 5.43 | 0.0145 | 0.0183 | – | –
2 | B2 | 6.28 | 7 | 6.1 | 5.92 | 6.64 | 0.0197 | 0.0236 | – | –
3 | B3 | 1.12 | 8.18 | 4.84 | 3.91 | 8.47 | – | – | no binding | no binding
